39 molecules from US20260242478A1 (published 2026) can be followed below.

In test [1] the target is T1, PSMA Fab.
T1 construct: Biotinylated PSMA Fab captured on neutravidin coated plates in the phage ELISA; also called Anti-PSMA Fab; 006 PSMA Fab
As to the kind of experiment: clonal phage ELISA on biotinylated PSMA Fab captured on neutravidin plates, anti-M13 HRP detection.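 Further: crude clonal phage supernatants tested, before phage were added, wells were pretreated with PSMA antigen in blocking buffer or with blocking buffer only.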 A general note: In an ELISA, binding on a coated surface is turned into a signal by an enzyme label.
Method: (§1) Clonal phage were harvested as crude supernatants and screened via standard ELISAs. […] Prior to the addition of clonal phage. wells were incubated with blocking buffer and PSMA antigen or blocking buffer alone. Without washing or aspirating, clonal phage supernatants were then added to the wells and incubated for a short time. Wells were then washed followed by detection of bound phage using a horse radish conjugated anti-M13 antibody.

Test [2] deals with T1, PSMA Fab. Nature of the test: clonal phage ELISA on captured PSMA Fab pre-incubated with PSMA antigen as competitor, anti-M13 HRP detection.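 Further: crude clonal phage supernatants tested by ELISA, wells first treated with blocking buffer plus PSMA antigen, bound phage read out via HRP-linked anti-M13 antibody.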
Method: as §1
Test [3] deals with T2, PSMA Fab (biotinylated (site not stated)).
T2 construct: also called Anti-PSMA Fab; 006 PSMA Fab
As to the kind of experiment: clonal phage ELISA on biotinylated PSMA Fab captured on neutravidin plates, anti-M13 HRP detection.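 Further: crude clonal phage supernatants tested, before phage were added, wells were pretreated with PSMA antigen in blocking buffer or with blocking buffer only.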

The target in test [4] is T2, PSMA Fab. Nature of the test: clonal phage ELISA on captured biotinylated PSMA Fab; competitor: PSMA antigen at saturating concentration.
Method: as §1
Test [5] addresses T3, PSMA Fab (006 PSMA Fab).
T3 construct: also called Anti-PSMA Fab; anti-PSMA Fab
As to the kind of experiment: clonal phage ELISA on biotinylated PSMA Fab captured on neutravidin plates, anti-M13 HRP detection.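 Further: crude clonal phage supernatants tested, before phage were added, wells were pretreated with PSMA antigen in blocking buffer or with blocking buffer only.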
Method: as §1

Test [6] addresses T3, PSMA Fab (006 PSMA Fab). Nature of the test: clonal phage ELISA on captured PSMA Fab, wells pre-incubated with PSMA antigen as competitor, anti-M13 HRP detection.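 Further: crude clonal phage supernatants added, with no intervening wash, to wells preincubated with PSMA antigen in blocking buffer, incubated briefly, then washed before detecting bound phage.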
Method: as §1

Where no end group is shown, it is not given here.

GPKWCTPTWMCEFS [Phage-2776]: the “Phage binding ELISA signal, Anti-PSMA Fab” value in test [1] amounted to 0.638. The “phage binding ELISA signal (Anti-PSMA Fab, PSMA antigen present)” value in test [2] is 0.0754.

For the molecule WEKWCTPSWMCSGI [Phage-2791], the “Phage binding ELISA signal, Anti-PSMA Fab” value in test [3] was found to be 0.598. Further, the “phage binding ELISA signal (Anti-PSMA Fab, wells pre-incubated with PSMA antigen)” value in test [4] came out at 0.0859.

In the case of DMKLCRPAWMCMHN [Phage-2784], the “Phage binding ELISA signal, Anti-PSMA Fab” value in test [1] came to 0.621. The “phage binding ELISA signal (Anti-PSMA Fab, PSMA antigen present)” value in test [2] turned out to be 0.0536.

With FEKWCTPQWMCNSM [Phage-2795], the “Phage binding ELISA signal, Anti-PSMA Fab” value in test [3] came to 0.59. For the same molecule, the “phage binding ELISA signal (Anti-PSMA Fab, wells pre-incubated with PSMA antigen)” value in test [4] worked out at 0.0699.

As for TEKWCIPQWMCVRT [Phage-2794], in test [3], the “Phage binding ELISA signal, Anti-PSMA Fab” value turned out to be 0.592. The “phage binding ELISA signal (Anti-PSMA Fab, wells pre-incubated with PSMA antigen)” value in test [4] was found to be 0.0656.

In the case of VVKMCKPLWMCGIS [Phage-2746], the “Phage binding ELISA signal, Anti-PSMA Fab” value in test [5] is 0.701. For the same molecule, in test [6], the “Phage binding ELISA signal, Anti-PSMA Fab with PSMA antigen” value worked out at 0.0564.

As for EENWCIPVWMCERL [Phage-2786], in test [1], the “Phage binding ELISA signal, Anti-PSMA Fab” value amounted to 0.607. In addition, the “phage binding ELISA signal (Anti-PSMA Fab, PSMA antigen present)” value in test [2] turned out to be 0.0721.

As to GNLWCSPPWMCFGM [Phage-2749], in test [5], the “Phage binding ELISA signal, Anti-PSMA Fab” value turned out to be 0.696. Further, in test [6], the “Phage binding ELISA signal, Anti-PSMA Fab with PSMA antigen” value came out at 0.0732.

Regarding TNKLCIPTWMCSGF [Phage-2745], the “Phage binding ELISA signal, Anti-PSMA Fab” value in test [5] was found to be 0.703. Besides, the “Phage binding ELISA signal, Anti-PSMA Fab with PSMA antigen” value in test [6] amounted to 0.0715.

With DPKWCTPSWMCDWR [Phage-2755], the “Phage binding ELISA signal, Anti-PSMA Fab” value in test [5] worked out at 0.69. For the same molecule, the “Phage binding ELISA signal, Anti-PSMA Fab with PSMA antigen” value in test [6] stood at 0.0821.

Turning to SEKWCTPAWMCGDM [Phage-2747], the “Phage binding ELISA signal, Anti-PSMA Fab” value in test [5] turned out to be 0.7. In addition, the “Phage binding ELISA signal, Anti-PSMA Fab with PSMA antigen” value in test [6] was found to be 0.0842.

Regarding GWNWCVPQWMCTTS [Phage-2781], in test [1], the “Phage binding ELISA signal, Anti-PSMA Fab” value stood at 0.623. Besides, the “phage binding ELISA signal (Anti-PSMA Fab, PSMA antigen present)” value in test [2] came out at 0.121.

SVKWCTPSWMCTEW [Phage-2788]: the “Phage binding ELISA signal, Anti-PSMA Fab” value in test [3] stood at 0.601. The “phage binding ELISA signal (Anti-PSMA Fab, wells pre-incubated with PSMA antigen)” value in test [4] turned out to be 0.104.

B1: Phage-2771 (peptide)
peptide: QMHWCMPPWMCEGI
modifications: cysteine pairing not given here; also: fused to pIII, displayed on bacteriophage
B1: in test [1], the “Phage binding ELISA signal, Anti-PSMA Fab” value stood at 0.65. The “phage binding ELISA signal (Anti-PSMA Fab, PSMA antigen present)” value in test [2] was 0.0705.

As for DQNWCIPHWMCVGI [Phage-2779], the “Phage binding ELISA signal, Anti-PSMA Fab” value in test [1] amounted to 0.625. Further, the “phage binding ELISA signal (Anti-PSMA Fab, PSMA antigen present)” value in test [2] stood at 0.0883.

Take TQHWCTPIWMCEGL [Phage-2792]: in test [3], the “Phage binding ELISA signal, Anti-PSMA Fab” value came out at 0.597. Besides, the “phage binding ELISA signal (Anti-PSMA Fab, wells pre-incubated with PSMA antigen)” value in test [4] came to 0.0819.

With VTNWCTPPWMCEML [Phage-2793], the “Phage binding ELISA signal, Anti-PSMA Fab” value in test [3] was determined as 0.596. Further, the “phage binding ELISA signal (Anti-PSMA Fab, wells pre-incubated with PSMA antigen)” value in test [4] was found to be 0.213.

EDIWCIPSWMCGVI [Phage-2751]: in test [5], the “Phage binding ELISA signal, Anti-PSMA Fab” value worked out at 0.694. Besides, the “Phage binding ELISA signal, Anti-PSMA Fab with PSMA antigen” value in test [6] turned out to be 0.0663.

As to DWKWCIPAWMCSQD [Phage-2748], in test [5], the “Phage binding ELISA signal, Anti-PSMA Fab” value was determined as 0.697. Moreover, in test [6], the “Phage binding ELISA signal, Anti-PSMA Fab with PSMA antigen” value came out at 0.0645.

Consider VHKMCTPPWMCVTQ [Phage-2783], for which the “Phage binding ELISA signal, Anti-PSMA Fab” value in test [1] worked out at 0.621. Moreover, the “phage binding ELISA signal (Anti-PSMA Fab, PSMA antigen present)” value in test [2] turned out to be 0.0908.

With QDKMCRPDWMCMNQ [Phage-2782], in test [1], the “Phage binding ELISA signal, Anti-PSMA Fab” value stood at 0.621. For the same molecule, the “phage binding ELISA signal (Anti-PSMA Fab, PSMA antigen present)” value in test [2] is 0.0706.

Take DLKWCVPTWMCNWS [Phage-2775]: in test [1], the “Phage binding ELISA signal, Anti-PSMA Fab” value amounted to 0.639. Besides, in test [2], the “phage binding ELISA signal (Anti-PSMA Fab, PSMA antigen present)” value worked out at 0.0692.

For VQAWCVPQWMCNQF [Phage-2772], the “Phage binding ELISA signal, Anti-PSMA Fab” value in test [1] came out at 0.646. The “phage binding ELISA signal (Anti-PSMA Fab, PSMA antigen present)” value in test [2] worked out at 0.0631.

In the case of FDKWCTPPWMCKVF [Phage-2744], the “Phage binding ELISA signal, Anti-PSMA Fab” value in test [5] was found to be 0.708. Besides, the “Phage binding ELISA signal, Anti-PSMA Fab with PSMA antigen” value in test [6] is 0.143.

Consider SMKMCTPPWMCEFA [Phage-2774], for which the “Phage binding ELISA signal, Anti-PSMA Fab” value in test [1] was found to be 0.641. Also, the “phage binding ELISA signal (Anti-PSMA Fab, PSMA antigen present)” value in test [2] was determined as 0.0631.

For QDKWCTPTWMCEGL [Phage-2778], in test [1], the “Phage binding ELISA signal, Anti-PSMA Fab” value came to 0.631. Further, in test [2], the “phage binding ELISA signal (Anti-PSMA Fab, PSMA antigen present)” value came to 0.0777.

For the molecule ANHWCIPSWMCTEV [Phage-2753], the “Phage binding ELISA signal, Anti-PSMA Fab” value in test [5] was 0.692. Also, the “Phage binding ELISA signal, Anti-PSMA Fab with PSMA antigen” value in test [6] stood at 0.162.

In the case of DVKWCKPRWMCNRD [Phage-2750], the “Phage binding ELISA signal, Anti-PSMA Fab” value in test [5] was 0.695. In addition, in test [6], the “Phage binding ELISA signal, Anti-PSMA Fab with PSMA antigen” value came out at 0.0701.

Take IMKWCTPTWMCEMG [Phage-2743]: in test [5], the “Phage binding ELISA signal, Anti-PSMA Fab” value is 0.708. Also, the “Phage binding ELISA signal, Anti-PSMA Fab with PSMA antigen” value in test [6] was found to be 0.122.

B2: Phage-2787 (peptide)
peptide: LWKSCTPEWMCAEW
modifications: cysteine pairing not given here; also: fused to pIII, displayed on bacteriophage
With B2, the “Phage binding ELISA signal, Anti-PSMA Fab” value in test [3] was 0.606. Further, the “phage binding ELISA signal (Anti-PSMA Fab, wells pre-incubated with PSMA antigen)” value in test [4] was determined as 0.0991.

As to ETSWCRPTWMCEGM [Phage-2752], in test [5], the “Phage binding ELISA signal, Anti-PSMA Fab” value came out at 0.693. Besides, in test [6], the “Phage binding ELISA signal, Anti-PSMA Fab with PSMA antigen” value was found to be 0.0587.

Regarding VGKWCTPEWMCSGF [Phage-2789], the “Phage binding ELISA signal, Anti-PSMA Fab” value in test [3] came out at 0.6. Besides, the “phage binding ELISA signal (Anti-PSMA Fab, wells pre-incubated with PSMA antigen)” value in test [4] amounted to 0.0562.

B3: Phage-2790 (peptide)
peptide: VMKWCTPSWMCAEA
modifications: cysteine pairing not given here; also: fused to pIII, displayed on bacteriophage
For B3, the “Phage binding ELISA signal, Anti-PSMA Fab” value in test [3] was 0.599. Also, the “phage binding ELISA signal (Anti-PSMA Fab, wells pre-incubated with PSMA antigen)” value in test [4] was 0.0742.

B4: Phage-2773 (peptide)
peptide: VPKWCTPSWMCASN
modifications: cysteine pairing not given here; also: fused to pIII, displayed on bacteriophage
For the molecule B4, the “Phage binding ELISA signal, Anti-PSMA Fab” value in test [1] turned out to be 0.643. Besides, the “phage binding ELISA signal (Anti-PSMA Fab, PSMA antigen present)” value in test [2] worked out at 0.0608.

As for APQWCIPPWMCHDQ [Phage-2754], in test [5], the “Phage binding ELISA signal, Anti-PSMA Fab” value worked out at 0.691. Besides, in test [6], the “Phage binding ELISA signal, Anti-PSMA Fab with PSMA antigen” value was 0.0708.

Turning to VLNWCTPPWMCSGI [Phage-2780], the “Phage binding ELISA signal, Anti-PSMA Fab” value in test [1] is 0.624. For the same molecule, the “phage binding ELISA signal (Anti-PSMA Fab, PSMA antigen present)” value in test [2] was 0.0732.

With GSNWCKPAWMCSVA [Phage-2777], the “Phage binding ELISA signal, Anti-PSMA Fab” value in test [1] stood at 0.634. The “phage binding ELISA signal (Anti-PSMA Fab, PSMA antigen present)” value in test [2] worked out at 0.0623.

Turning to LNNWCTPAWMCVGY [Phage-2796], the “Phage binding ELISA signal, Anti-PSMA Fab” value in test [3] came to 0.589. The “phage binding ELISA signal (Anti-PSMA Fab, wells pre-incubated with PSMA antigen)” value in test [4] was 0.084.

With DVKWCTPPWMCLSD [Phage-2785], the “Phage binding ELISA signal, Anti-PSMA Fab” value in test [1] was found to be 0.613. Besides, in test [2], the “phage binding ELISA signal (Anti-PSMA Fab, PSMA antigen present)” value turned out to be 0.1.
